In the Human Domainome abundance scans (Beltran et al. 2025):

B1: Storkhead-box protein 2, residues 64 to 141; numbered along this chain, Q9P2F5 (parent)
chain: SPISQSQFIPLGEILCLAISAMNSARKPVTQEALMEHLTTCFPGVPTPSQEILRHTLNTLVRERKIYPTPDGYFIVTP

Variants of: B1
Assay: abundance fitness (aPCA) (normalised: wild type 0, dead -1); higher = more abundant; growth selection in yeast, the domain comes from the species named
Settings: Homo sapiens

Abundance fitness of substitutions, site by site:
F8: E -0.012, P -0.081
A18: I -0.308, H -0.125, F -0.446, C -0.001, N -0.376, K -0.282, G -0.095, R -0.148, P -0.887, M -0.593, E -0.102, D -1.1, Q -0.26
P2: R 0.019, H 0.051, V 0.001, N 0.188, K -0.137, Y 0.107, M 0.013, W -0.102, D 0.124, E -0.18, A -0.084, Q 0.103, L 0.046, C -0.15, S 0.002, G -0.095, I -0.037
Q5: H -0.099, F -0.109, C -0.025, R -0.068, Y -0.055, E -0.015, W -0.276, D -0.021, G -0.12, A 0.037, K 0.012, T 0.049, P -0.125, I -0.052, S -0.007, L -0.079
L11: Q -0.32, C -0.62, K -0.51, H -0.051, I -0.096, A -0.258, G -0.277, F 0.054, E -0.325, V -0.163, D -0.316, N -0.466, Y -0.008, S -0.396, P -0.299, T -0.278, R -0.428, W -0.418
P10: C -0.136, Y 0.003, N 0.108, R 0.089, T -0.024, D -0.135, L 0.085, F -0.04, K 0.016, S -0.067, V 0.171, M 0.048, E -0.043, H -0.101, W 0.175, A -0.027, I 0.302
I3: A -0.075, V 0.001, M -0.047, Q -0.12, H -0.017, R -0.022, Y -0.158, E 0.041, P -0.106, N -0.207, G -0.046, T -0.024, S 0.004, F -0.255, C -0.16, W -0.44
C16: P -0.124, Q 0.072, W -0.052, K -0.155, E -0.148, D -0.353, M -0.04, G -0.249, A -0.197, L -0.019, Y -0.021, R -0.061, S -0.091, F -0.074, N -0.08, I -0.01, T -0.027, V -0.074
L17: N 0.079, C -0.116, S 0.008, M -0.041, W -0.129, I 0.133, A 0.005, P -0.092, F -0.096, D -0.069, G -0.016, E 0.039, V -0.059, T 0.043, H 0.034
I14: F -0.228, T -0.034, L -0.035, P -0.032, E -0.089, N -0.384, Q -0.118, M 0.024, S 0.01, K -0.039, A -0.003, C -0.109, V -0.031, Y -0.108, D -0.258, W -0.105, G -0.097, R -0.073, H 0.033
Q7: N -0.015, L -0.085, P -0.021, A 0.043, V -0.064, S 0.036, K -0.051, I -0.068, W -0.152, E 0.023, H -0.122, T -0.02, G 0.063, D -0.032, F -0.065, C -0.154
